B1: TraE (Aeromonas veronii) (protein)
chain: MKQIKQTPLKKGRTEPVMRMYPDYQFHVSDNVVFTADKKALASIAIEGMPFESISDGVLESDFDSIKNFLVNMGKDGDVYLWTHLVKEKVSLDEEYHFKSDFLNRFSNQYTELFRGSNFFKSTYYLTFGIKYSNISEAIERLDEVIHQAKAVLGKYGAHVLTVDQNRVSGVADYLHLLLNKSHAEIPLSINPISSSIADSEWYFGYDSLELRNNEAEEKKFATNYVVKDFPMFTELGQWDFLLRLPYEFIITQSFIYEAPTKTLKEIDAQLNKMGSAGDAAENQQDELVLGKEVVTSGITLFGSYHCVLTVFGRTADEARKNGIKVSSEFVSAGKGFRFIRTNSAGAHCYFSHMPMNKIRPLATRRTITNLACTFSLHNYSHGKKRGNPIGDGTAIMPLKTVADGLYWFNTHYSEPGRDVRGQKIAGHAMILGATGAGKTTFEGAAAGFLQRFDPYMFVVDFNRSTELFVRAYGGSYFTLKEGEYTGLNPFQICDLDDELAPRLVQFLKSYVKTLAYDQSGKPCSDAQAEELAKAVDATMLLPREMRRLSTLLSRISDPELKIRLAKWCGAGQYAWAVDSPRNTFNPMDFKKVGFDTTVILEKTKDGVHPACEPLLAILFFYKSLMQREGQLMLSIIEEFWMPANFPLTQAMIKSALKAGRMKGEMMWLTSQSPEDAIYCEIFPALVQQTATKILLPNPDADLEGYKKIGLTVKEFDRLKKLGKESRTMLIKQSGSSCFAKMDLYGFDDFLPIISGSMEGITLCEKVRAELGTDNPDIWIPEFLKQLREE
B2: TraK (Aeromonas veronii) (protein)
chain: MKNKAGFIGFLLFVFALCSVGSLYLGGYMLLKKSGVDMSALSIHTFFDVNRDLGGDPAFKKIIAWGWIGFAIPYAIFLFFVGVMLVGLMPKKVIYGDGRLATPMDLARSGFFPKKGDKHKQPPILIGKMFKGRFKNSYIYFYGQQFLILYAPTRSGKGVGIVIPNCVNYPESIVVLDIKLENFFLSAGYRKEQGQECFLFSPDGFADNLDAARRGEIKSHRFNPLDYVSRSPLQRESDLKKIAAILYPTSGGENDTWNESASSLWIGLALYLLDMEKVEPKTKVAVSQIIKISVPGSGDPLEKWMELTIKAKSDILGDDTKQYFRKFMSAADRTRASILVNFNNGVAVFSNPITAAATDSSDFDLRDLRKKKMSVYLGLSPNSLVTHAKLVNLFFSLLVNENTKELPENNPELKYQCLLILDEFTSMGRVEIIQKAVGFTAGYNIRFMFILQNKGQLEDDKMYGKEGAETFIENTGVELYYPPKSVNDTAKAISEKIGVRDEKVSSISRSSQSGKTSRSKSTSTEKRAVLLPDEIVSLRDHKNKGGNMAVREIILSDFCRPFIANKIVYFEEPIFMERVNYARKNPIEIPFLFNEDERKTFTCDSISLGSVMKKPDLDNHDQADKSE

Substrate: Nc1ncnc2c1ncn2[C@@H]1O[C@H](COP(=O)(O)OP(=O)(O)OP(=O)(O)O)[C@@H](O)[C@H]1O
Assay: purified protein
Conditions: 10 mM MgCl2, pH 7.6, 37 °C, ATP 0.025-3.5 mM

Row | Protein | Km | Km (Discussion prints 0.96 mM instead)
1 | B1 | 550 µM | 
2 | B2 |  | 920 µM

— article PMC2831815
